The text below walks through data of patent publication US5493008A, “Two non-contiguous regions contribute to nidogen binding to a single EGF-like motif of the laminin γ1 chain” (The University Of Virginia Patent Foundation, priority 1994, dated 1996).

Read-outs that look alike come from different tables or passages of the source. Where a SMILES comes first, the peptide text is derived from it. Where no end group is shown, it is not given here. The star is where a group is joined. Nle‑OMe = norleucine methyl ester coupled to carboxyl groups via carbodiimide, CCCC[C@H](N*)C(=O)OC

One assay concerns the target T1, nidogen (Mus musculus, UniProt P10493).
T1 sequence (P10493 29-1245): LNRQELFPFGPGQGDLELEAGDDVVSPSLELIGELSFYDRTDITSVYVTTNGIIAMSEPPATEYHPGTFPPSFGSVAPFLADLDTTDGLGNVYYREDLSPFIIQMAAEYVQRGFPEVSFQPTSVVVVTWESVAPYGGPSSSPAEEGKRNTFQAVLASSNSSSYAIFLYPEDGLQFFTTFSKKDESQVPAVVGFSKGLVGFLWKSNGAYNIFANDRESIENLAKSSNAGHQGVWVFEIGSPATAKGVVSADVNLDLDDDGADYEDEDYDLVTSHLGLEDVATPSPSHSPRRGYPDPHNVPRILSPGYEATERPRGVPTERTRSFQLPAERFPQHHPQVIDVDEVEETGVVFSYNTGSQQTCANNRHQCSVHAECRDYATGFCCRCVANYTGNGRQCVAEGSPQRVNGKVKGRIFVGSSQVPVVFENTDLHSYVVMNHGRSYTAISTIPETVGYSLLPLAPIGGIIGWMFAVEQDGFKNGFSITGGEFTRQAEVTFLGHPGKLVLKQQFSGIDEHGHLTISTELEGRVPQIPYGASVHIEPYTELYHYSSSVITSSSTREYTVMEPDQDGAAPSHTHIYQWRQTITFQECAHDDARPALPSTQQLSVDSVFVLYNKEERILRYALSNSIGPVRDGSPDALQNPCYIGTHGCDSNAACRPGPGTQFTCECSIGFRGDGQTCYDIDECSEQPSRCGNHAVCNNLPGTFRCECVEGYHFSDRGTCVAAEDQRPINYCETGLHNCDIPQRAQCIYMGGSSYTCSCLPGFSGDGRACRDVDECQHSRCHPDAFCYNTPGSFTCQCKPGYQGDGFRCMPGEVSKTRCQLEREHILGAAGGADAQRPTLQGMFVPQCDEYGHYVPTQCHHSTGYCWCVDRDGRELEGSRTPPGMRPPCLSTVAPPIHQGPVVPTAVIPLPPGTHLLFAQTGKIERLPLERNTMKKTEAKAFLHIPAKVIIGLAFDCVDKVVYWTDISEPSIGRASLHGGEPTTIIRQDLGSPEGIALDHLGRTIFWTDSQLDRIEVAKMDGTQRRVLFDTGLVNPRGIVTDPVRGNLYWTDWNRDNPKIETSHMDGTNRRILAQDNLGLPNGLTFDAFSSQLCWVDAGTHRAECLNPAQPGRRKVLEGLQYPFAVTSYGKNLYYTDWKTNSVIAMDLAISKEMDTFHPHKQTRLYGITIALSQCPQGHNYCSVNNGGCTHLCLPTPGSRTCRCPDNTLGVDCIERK
Briefly: Radioligand competition assay: inhibition of 125I-laminin fragment P1 binding to nidogen. To be noted: for inhibitory activity in words: laminin-nidogen binding competition. The protocol:
A radioligand competition assay was used for measurement of relative binding affinities (Mann K. et al. (1988), Eur. J. Biochem., 178, 71-80; Fox, J. W. et al. (1991), EMBO J., 10, 3137-3146). A fixed concentration of recombinant nidogen (0.2 nM) was incubated overnight at 4° C. with inhibitors at varying concentrations, followed by the addition of ^125 I-labeled laminin fragment P1 (0.01 nM; 10,000-20,000 c.p.m.) for the same incubation period. Bound and non-bound fragment P1 was then separated by antibodies against nidogen. Competitor concentrations causing 50% inhibition (IC50) were determined from dose-response profiles. […] IC50 values compared from different assays were normalized to a single fragment P1 value.
On the technique in general: In a radioligand displacement assay an active substance lowers the binding of a labelled ligand.

For a further assay, the target named is T2, recombinant nidogen (Mus musculus (Mouse), UniProt P10493).
T2 sequence: T1 sequence (P10493 29-1245)
Briefly: radioligand competition assay: inhibitor varied, 0.2 nM recombinant nidogen, 125I-laminin fragment P1. How it is done:
A radioligand competition assay was used for measurement of relative binding affinities (Mann K. et al. (1988), Eur. J. Biochem., 178, 71–80; Fox, J. W. et al. (1991), EMBO J., 10, 3137–3146). A fixed concentration of recombinant nidogen (0.2 nM) was incubated overnight at 4° C. with inhibitors at varying concentrations, followed by the addition of ^125I-labeled laminin fragment P1 (0.01 nM; 10,000–20,000 c.p.m.) for the same incubation period. Bound and non-bound fragment P1 was then separated by antibodies against nidogen.

Setting [1] is: Table II, synthetic loops of EGF-like repeat 4 and smaller synthetic and proteolytic fragments, read-out: IC50 (inhibitory capacity).
Setting [2] is: Table IV, recombinant mutants and chimeric structures of γ1III4, read-out: IC50 (inhibitory activity for laminin-nidogen binding).

As a reminder, the IC50 is the concentration that inhibits the measured activity by half. For the molecule `CC(C)C[C@@H]1NC(=O)[C@@H]2CCCN2C(=O)[C@H](CC(N)=O)NC(=O)CNC(=O)[C@H](Cc2ccccc2)NC(=O)[C@H](Cc2ccccc2)NC(=O)CNC(=O)[C@H](CCC(=O)O)NC(=O)[C@H](CCCCN)NC(=O)[C@@H](NC(=O)[C@@H](N)CCCNC(=N)N)CSSC[C@@H](C(=O)N[C@@H](CCCCN)C(=O)O)NC(=O)[C@H](CCCCN)NC(=O)[C@H](CC(=O)O)NC(=O)[C@H](C)NC(=O)[C@@H]2CCCN2C(=O)[C@H](CC(N)=O)NC(=O)[C@@H]2CCCN2C(=O)[C@H](C)NC1=O` [loop d, oxidized] (HELM PEPTIDE1{R.C.K.E.G.F.F.G.N.P.L.A.P.N.P.A.D.K.C.K}$PEPTIDE1,PEPTIDE1,2:R3-19:R3$$$V2.0; N-terminus and C-terminus assumed), the values for the IC50 at nidogen (setting [1]) and on nidogen (read-out: IC50) were over 90 µM and 90 to 200 µM, respectively. Also, on nidogen, the “inhibitory activity in words” value is “No inhibitory activity”.

Consider `CC[C@H](C)[C@H](NC(=O)[C@H](CC(N)=O)NC(=O)[C@H](CC(=O)O)NC(=O)[C@H](CC(N)=O)NC(=O)[C@H](CS)NC(=O)[C@H](CCC(N)=O)NC(=O)[C@H](CS)NC(=O)[C@@H]1CCCN1)C(=O)N[C@@H](CC(=O)O)C(=O)N1CCC[C@H]1C(=O)N[C@@H](CC(N)=O)C(=O)N[C@@H](C)C(=O)N[C@H](C(=O)NCC(=O)N[C@@H](CC(N)=O)C(=O)N[C@@H](CS)C(=O)N[C@@H](CC(N)=O)C(=O)N[C@@H](CCCNC(=N)N)C(=O)O)C(C)C` [T1, PCQCNDNTDPNAVGNCNR], for which, on nidogen, the “inhibitory activity in words” value is given as “undiminished activity”.

Regarding “γ1III4D800,N: recombinant γ1III4 with Asp800 mutated to Asn”, the IC50 in the assay with nidogen (setting [2]) was determined as 1 µM.

Take LTGECL [T2, LTGECL]: the IC50 at nidogen (setting [1]) came out at 12 µM.

Regarding DNIDPNAVGNCNRLTGECL [E1, 797-815], the IC50 with recombinant nidogen is 530 nM.

As for AVGNCNR [Th1, 803-809], the binding result in the assay with recombinant nidogen is “no binding (tested: >30,000 nM)”.

B1: recombinant fragment γ1III3-5 (other)
chain: PCPCPGGSSCAIVPKTKEVVCTHCPTGTAGKRCELCDDGYFGDPLGSNGPVRLCRPCQCNDNIDPNAVGNCNRLTGECLKCIYNTAGFYCDRCKEGFFGNPLAPNPADKCKACACNPYGTVQQQSSCNPVTGQCQCLPHVSGRDCGTCDPGYYNLQSGQGCE
On to B1, for which the IC50 with recombinant nidogen worked out at 0.04 nM.

B2: γ1III3-5, Asp/Glu amidation (other)
chain: B1 chain
modifications: carboxyl groups (Asp, Glu) activated with 1-ethyl-3-dimethylaminopropylcarbodiimide and blocked by norleucine methylester
With B2, the IC50 with recombinant nidogen worked out at 2.1 nM.

Take NIDPNAVGN [NIDPNAVGN (S, 798-806)]: the IC50 in the assay with recombinant nidogen is 600 nM.

B3: γ1III3-5Δ4: recombinant deletion mutant joining repeats 3 and 5, lacking EGF-like repeat 4 (protein)
chain: PCPCPGGSSCAIVPKTKEVVCTHCPTGTAGKRCELCDDGYFGDPLGSNGPVRLCRACACNPYGTVQQQSSCNPVTGQCQCLPHVSGRDCGTCDPGYYNLQSGQGCE
For B3, the IC50 with nidogen (setting [2]) is over 3.2 µM. Besides, the “inhibitory activity in words” value with nidogen is listed as “without measurable activity”.

Turning to NIDPNA [NIDPNA (S, 798-803)], the binding result in the assay with recombinant nidogen is “no binding (tested: >460,000 nM)”.

Regarding PCQCN [E3, 792-796], the binding result with recombinant nidogen is given as “no binding (tested: >96,000 nM)”.

B4: synthetic loop a,b, amidated (792-815) (peptide)
peptide: PCQCND(Nle‑OMe)NTD(Nle‑OMe)PNAVGNCNRLTGE(Nle‑OMe)CL
modifications: not fully specified; cysteine pairing not given here; also: carboxyl groups of Asp and Glu blocked with norleucine methyl ester (amidation), sites not placed
On to B4, for which, in the assay with recombinant nidogen, the IC50 was over 5400 nM.

With NVDPSAV, the binding result with recombinant nidogen is recorded as “no binding (tested: >180,000 nM)”.
